According to FireProtDB (doi:10.1006/jmbi.1995.0599):

B1: Lysozyme C, P61626 (parent)
chain: MKALIVLGLVLLSVTVQGKVFERCELARTLKRLGMDGYRGISLANWMCLAKWESGYNTRATNYNAGDRSTDYGIFQINSRYWCNDGKTPGAVNACHLSCSALLQDNIADAVACAKRVVRDPQGIRAWVAWRNRCQNRDVRQYVQGCGV

Variants of: B1
Conditions: Homo sapiens, pH 2.7, Thermal, DSC, glycine 0.05 M, reversible: yes, structure 1LZ1, whole UniProt chain shown

| Variant | ddG of mutation (higher = less stable) (64.9 °C) [kcal/mol] | heat capacity change of unfolding (64.9 °C) [kcal/mol/K] | Tm [°C] | change of melting temperature, mutant - wild type (higher = more stable) [°C] | heat capacity change of unfolding [kcal/mol/K] | unfolding enthalpy (calorimetric) [kcal/mol] | unfolding enthalpy (van 't Hoff) [kcal/mol] |
| --- | --- | --- | --- | --- | --- | --- | --- |
| MKALIVLGLVLLSVTVQGKVFERCELARTLKRLGMDGYRGISLANWMCLAKWESGYNTRATNYNAGDRSTDYGVFQINSRYWCNDGKTPGAVNACHLSCSALLQDNIADAVACAKRVVRDPQGIRAWVAWRNRCQNRDVRQYVQGCGV | 1.2 | 1.34 | 61.3 | -3.6 | 1.34 | 114 | 117 |
| MKALIVLGLVLLSVTVQGKVFERCELARTLKRLGMDGYRGISLANWMCLAKWESGYNTRATNYNAGDRSTDYGIFQVNSRYWCNDGKTPGAVNACHLSCSALLQDNIADAVACAKRVVRDPQGIRAWVAWRNRCQNRDVRQYVQGCGV | – | – | 61.5 | -3.4 | 1.2 | 110 | 117 |
| MKALIVLGLVLLSVTVQGKVFERCELARTLKRLGMDGYRGISLANWMCLAKWESGYNTRATNYNAGDRSTDYGIFQINSRYWCNDGKTPGAVNACHLSCSALLQDNVADAVACAKRVVRDPQGIRAWVAWRNRCQNRDVRQYVQGCGV | 0.48 | 1.91 | 63.5 | -1.4 | 1.91 | 116 | 122 |
| MKALIVLGLVLLSVTVQGKVFERCELARTLKRLGMDGYRGVSLANWMCLAKWESGYNTRATNYNAGDRSTDYGIFQINSRYWCNDGKTPGAVNACHLSCSALLQDNIADAVACAKRVVRDPQGIRAWVAWRNRCQNRDVRQYVQGCGV | 0.36 | 1.39 | 63.8 | -1.1 | 1.39 | 112 | 120 |
| MKALIVLGLVLLSVTVQGKVFERCELARTLKRLGMDGYRGISLANWMCLAKWESGYNTRATNYNAGDRSTDYGIFQINSRYWCNDGKTPGAVNACHLSCSALLQDNIADAVACAKRVVRDPQGVRAWVAWRNRCQNRDVRQYVQGCGV | 0.72 | 1.41 | 62.7 | -2.2 | 1.41 | 109 | 114 |
